Measured values from US20030180295A1, “Angiocidin: a Cys-Ser-Val-Thr-Cys-Gly specific tumor cell adhesion receptor” (Philadelphia Health and Education Corporation, priority 1999, published 2003).
No end group written: not given here. *: point of attachment. Acm = CC(=O)NC*

Columns and labels:
TSP-1 = TSP-1 (Homo sapiens, UniProt P07996); experiment: Affinity Sensor System (resonant mirror biosensor): binding to TSP-1 coupled to cuvette; details: peptide alone, TSP-1 immobilized in cuvette
Protocol: (§1) Binding of undenatured (in the ligand blot protocol above, the receptor is denatured by SDS) recombinant receptor to TSP-1 was evaluated using the Affinity Sensor System, Cambridge, UK. This is an optical binding method that uses a cuvette to which either ligand or receptor is covalently coupled. A laser beam is used to detect bound proteins to the protein-derivatized cuvette surface. This method is highly sensitive and measures both the association and dissociation rate constants for ligand receptor interactions. The instrument assumes that one molecule of receptor binds one molecule of TSP-1 and calculates the dissociation constant (KD) according to the following relationships:
1) kass[R][TSP-1]=kdiss[R-TSP-1] at equilibrium, where kass is the second order rate constant for association and kdiss is the first order rate constant for dissociation
2) KD=[R][TSP-1]/[R-TSP-1]=kdiss/kass
3) [R-TSP-1]t=[R-TSP-1]eq[1-exp(-kont)], where the instrument response measure in arc seconds is proportional to receptor-TSP-1 complex R-TSP-1].
4) kon=kass[L]+kdiss where kon is the pseudo-first order rate constant for receptor TSP-1 interaction.
(§2) About 1 μg of TSP-1 was coupled to the cuvette through its amino groups to COOH groups on the cuvette surface. Unreacted groups on the cuvette surface were then blocked with ethanolamine and albumin. […] A dissociation constant of […] was calculated from a plot of the pseudo first order rate constant for association versus the concentration of the receptor, as shown in FIG. 7. Instrument response vs time readings shown in FIG. 8, where the instrument response is proportional to the concentration of receptor-TSP-1 complex, were used to plot the data points on FIG. 7.
(§3) […] The peptides used were Val-Cys-His-Ser-Lys-Thr-Arg (SEQ ID NO: 8), Val-Cys(Acm)-His-Ser-Lys-Thr-Arg (SEQ ID NO: 9), and Pro-His-Ser-Arg-Asn (SEQ ID NO: 10). The first two peptides are derived from the binding portion of the receptor, where it interacts with the Cys-Ser-Val-Thr-Cys-Gly (SEQ ID NO: 1) portion of the TSP-1 protein. The third peptide is a control.

receptor-TSP-1 complex [1] = experiment: Affinity Sensor System: peptide competition of receptor binding to immobilized TSP-1; details: peptide:receptor 1000 and 100 molar ratio
Protocol: as §1, §2, §3

B16-F10 Melanoma Cells = experiment: Cell adhesion to immobilized receptor peptides; assay type: cell-based, mouse; details: Example 12, FIG. 14
Protocol: For the adhesion assay, in a 96 well plate, duplicate wells were covered with either TSP-1 (40 μg/ml), fibronectin (40 μg/ml), or and 1% bovine serum albumin (BSA). The wells were dried out overnight and then blocked with BSA. 100 μl of a suspension containing 2×10^5 cells were plated in the protein covered wells and incubated at 37^□ C. for 20 minutes to 1 hour. The non-adherent cells were removed and the wells were washed with a Hepes buffer. The adherent cells were fixed with 2.5% glutaraldehyde for 10 minutes and stained with 0.2% Giemsa. The stain was washed off and the cells were counted in a field of 1 mm square. Cells adhering to BSA were considered background while cells adhering to fibronectin were the positive control.
The method of Example 12 was followed except the receptor peptides Val-Cys-His-Ser-Lys-Thr-Arg (SEQ ID NO: 8) and Val-Cys(Acm)-His-Ser-Lys-Thr-Arg (SEQ ID NO: […]) were immobilized on the plates. TSP-1 and fibronectin were also immobilized on plates, as well as negative control peptides (Ala-Ser-Val-Thr-Ala-Arg (SEQ ID NO: 11) and Pro-His-Ser-Arg-Asn (SEQ ID NO: 10)) and bovine serum albumin. […] This provides support for the theory that another protein may be associated with TSP-1 and its receptor, or that the receptor is released and rebound to the membrane of the cell by another protein.

receptor-TSP-1 complex [2] = biological target: T1, receptor-TSP-1 complex (Homo sapiens, UniProt P55036, INS254GER); experiment: Affinity Sensor System: peptide competition of receptor binding to immobilized TSP-1; details: 10 fold molar excess of peptide
T1 construct: Full length cDNA cloned in the PBK-CMV vector was used as a template; 6xHis (pTrcHisA leader) (N); made in house; host or cells: bacteria (pTrcHisA vector)
T1 sequence (P55036 with tags, fused parts or gaps INS254GER): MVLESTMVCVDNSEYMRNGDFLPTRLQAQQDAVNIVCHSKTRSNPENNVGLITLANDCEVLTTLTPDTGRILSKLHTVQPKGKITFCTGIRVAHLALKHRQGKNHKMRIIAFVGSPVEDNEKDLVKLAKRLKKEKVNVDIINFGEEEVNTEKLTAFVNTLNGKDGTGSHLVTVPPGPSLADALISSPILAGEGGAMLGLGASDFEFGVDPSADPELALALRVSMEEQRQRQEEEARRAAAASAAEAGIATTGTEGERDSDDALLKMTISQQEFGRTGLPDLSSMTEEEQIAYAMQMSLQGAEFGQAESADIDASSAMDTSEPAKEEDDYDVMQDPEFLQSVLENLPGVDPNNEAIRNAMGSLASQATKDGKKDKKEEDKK
Protocol: as §1, §2, §3

receptor = biological target: T2, receptor (Homo sapiens, UniProt P55036, INS254GER); experiment: Affinity Sensor System: receptor binding to TSP-1 and Cys(Acm)-Ser-Val-Thr-Cys(Acm)-Gly; details: Example 8, FIG. 11
T2 construct: Full length cDNA cloned in the PBK-CMV vector was used as a template; 6xHis (pTrcHisA leader) (N); made in house; host or cells: bacteria (pTrcHisA vector)
T2 sequence (P55036 with tags, fused parts or gaps INS254GER): T1 sequence (P55036 with tags, fused parts or gaps INS254GER)
Protocol: as §1
The methodology set forth in Example 6 was followed except that TSP-1 and Cys(Acm)-Ser-Val-Thr-Cys(Acm)-Gly (SEQ ID NO: 6) were immobilized on cuvettes and the receptor was added to the cuvettes. The Acm version of the peptide was used to increase its stability in the experiment.

[3] = biological target: T3, biotin-angiocidin complex binding to TSP-1 (Homo sapiens, UniProt P55036, INS254GER); experiment: Biotin-avidin receptor binding assay: competition; details: Example 25, peptide 1 mg/ml, FIG. 32
T3 sequence (P55036 with tags, fused parts or gaps INS254GER): T1 sequence (P55036 with tags, fused parts or gaps INS254GER)
Protocol: In the following experiments, TSP-1 was covalently bound to a substrate, biotinylated angiocidin was added to the plate, and avidin-peroxidase was added to measure how much biotinylated angiocidin was attached to the TSP-1. The avidin-peroxidase was measured using a spectrophotometer at an absorbance of 450 nm.
Free angiocidin was added to the system to compete with the biotinylated angiocid in. […] Immobilized BSA was used as a negative control.
The TSP-1 peptide Cys-Ser-Val-Thr-Cys-Gly (SEQ ID NO: 1) was added to the system to compete with the TSP-1 on the plate for binding with the biotinylated angiocidin. The scrambled peptide Val-Cys-Thr-Gly-Ser-Cys (SEQ ID NO: 15) was used as a negative control and had no effect.
The avidin-biotin system discussed above was used to evaluate the competitive effect of various peptides on the binding of TSP-1 and angiocidin. […] The scrambled peptide Val-Cys-Thr-Gly-Ser-Cys-Gly (SEQ ID NO: 21) and the d-orientation peptide d-Cys-Ser-Val-Thr-Cys-Gly (SEQ ID NO: 22) were used as negative controls.

[4] = system: Bovine aortic endothelial cells (BAEC); experiment: ALAMAR BLUE cell viability assay; assay type: cell-based; details: TSP-1 at 20 μg/ml and 5 μg/ml
Protocol: (§4) Bovine aortic endothelial cells (BAEC), human umbilical vein endothelial cells (HUVEC), fibroblast cells, A549 human lung carcinoma cells (A549), MDA-MB231 human breast carcinoma cells (MB231), MCF7 human breast carcinoma cells (MCF7) were treated with 37 μg/ml of receptor, or buffer alone, for 24 hours. Viability of the cells was measured using the ALAMAR BLUE™ assay, which measures the capacity of cells to metabolize the ALAMAR BLUE™ dye. The ALAMAR BLUE™ assay (available from Biosource International, Camarillo, Calif.) quantitatively measures the proliferation of cell lines and can establish the relative cytotoxicity of chemical agents. The assay incorporates a fluorometric/colorimetric growth indicator based on detection of metabolic activity. The system incorporates an oxidation-reduction (redox) indicator that both fluoresces and changes color in response to chemical reduction of growth medium resulting from cell growth. This causes the redox indicator to change from its oxidized, non-fluorescent, blue form to its reduced, fluorescent, red form. Data can be collected using either fluorescence-based instrumentation (530-560 nm excitation wavelength and 590 nm emission wavelength) or absorbance-based instrumentation (570 nm and 600 nm).
BAEC and BSM cells were treated with increasing concentrations of angiocidin (0, 0.625, 1.25, 2.5, 5, 15, 26 and 37 μg/ml) for 24 hours. Cell viability was measured using the ALAMAR BLUE Tm assay. […] In contrast, BSM cells are unaffected.
The methods of Example 21 were followed, except BAEC cells were used. Additionally, TSP-1 was added at both 20 μg/ml and 5 μg/ml.
As discussed in Example 19 above, angiocidin was added to BAEC cells. Fragments of angiocidin were added as well. […] GST was used as a negative control. V36-R42, the active site of the antisecretory factor, had no effect, illustrating that angiocidin plays a different role from antisecretory factor.
Bovine aortic endothelial cells (BAEC) were cultured overnight in serum-free media containing either 37 μg/ml his-tagged angiocidin or his-tagged GST. Both angiocidin and GST were expressed in bacteria transformed with the pTrcHisA expression vector and purified on nickel affinity chromatography under non-denaturing conditions. Viability was measured by the ALAMAR BLUE™ assay.
This study examined the effect of anti-angiocidin antibody on angiocidin-mediated inhibition of BAEC viability. BAEC were cultured overnight in serum-free media containing either 5 μg/ml angiocidin, 5 μg/ml angiocidin plus 100 μg/ml control IgG, or 5 μg/ml angiocidin plus 100 μg/ml anti-angiocidin IgG. Viability was measured using the ALAMAR BLUE™ assay, described above.
The endothelial cells (BAEC) were incubated overnight 37 μg/ml of the angiocidin, fragments, and GST. Viability was measured using the ALAMAR BLUE™ assay.

[5] = system: human umbilical vein endothelial cells (HUVEC); experiment: ALAMAR BLUE cell viability assay; assay type: cell-based
Protocol: as §4
Similarly, the effect of receptor on viability of BAEC cells was compared to mouse Lewis lung carcinoma cells, using the same method.
The effect of angiocidin on HUVEC cell viability was evaluated, and FGF and TSP-1 were added to determine whether they ameliorated the angiocidin effect on cell viability. FGF (Fibroblast Growth Factor) is an endothelial cell mitogen, which promotes cell growth. […] TSP-1 was expected to reverse the inhibition of angiocidin; however, quantities added may have been insufficient to provide the correct molar ratio.

TSP-1, sequence (P07996 19-1170): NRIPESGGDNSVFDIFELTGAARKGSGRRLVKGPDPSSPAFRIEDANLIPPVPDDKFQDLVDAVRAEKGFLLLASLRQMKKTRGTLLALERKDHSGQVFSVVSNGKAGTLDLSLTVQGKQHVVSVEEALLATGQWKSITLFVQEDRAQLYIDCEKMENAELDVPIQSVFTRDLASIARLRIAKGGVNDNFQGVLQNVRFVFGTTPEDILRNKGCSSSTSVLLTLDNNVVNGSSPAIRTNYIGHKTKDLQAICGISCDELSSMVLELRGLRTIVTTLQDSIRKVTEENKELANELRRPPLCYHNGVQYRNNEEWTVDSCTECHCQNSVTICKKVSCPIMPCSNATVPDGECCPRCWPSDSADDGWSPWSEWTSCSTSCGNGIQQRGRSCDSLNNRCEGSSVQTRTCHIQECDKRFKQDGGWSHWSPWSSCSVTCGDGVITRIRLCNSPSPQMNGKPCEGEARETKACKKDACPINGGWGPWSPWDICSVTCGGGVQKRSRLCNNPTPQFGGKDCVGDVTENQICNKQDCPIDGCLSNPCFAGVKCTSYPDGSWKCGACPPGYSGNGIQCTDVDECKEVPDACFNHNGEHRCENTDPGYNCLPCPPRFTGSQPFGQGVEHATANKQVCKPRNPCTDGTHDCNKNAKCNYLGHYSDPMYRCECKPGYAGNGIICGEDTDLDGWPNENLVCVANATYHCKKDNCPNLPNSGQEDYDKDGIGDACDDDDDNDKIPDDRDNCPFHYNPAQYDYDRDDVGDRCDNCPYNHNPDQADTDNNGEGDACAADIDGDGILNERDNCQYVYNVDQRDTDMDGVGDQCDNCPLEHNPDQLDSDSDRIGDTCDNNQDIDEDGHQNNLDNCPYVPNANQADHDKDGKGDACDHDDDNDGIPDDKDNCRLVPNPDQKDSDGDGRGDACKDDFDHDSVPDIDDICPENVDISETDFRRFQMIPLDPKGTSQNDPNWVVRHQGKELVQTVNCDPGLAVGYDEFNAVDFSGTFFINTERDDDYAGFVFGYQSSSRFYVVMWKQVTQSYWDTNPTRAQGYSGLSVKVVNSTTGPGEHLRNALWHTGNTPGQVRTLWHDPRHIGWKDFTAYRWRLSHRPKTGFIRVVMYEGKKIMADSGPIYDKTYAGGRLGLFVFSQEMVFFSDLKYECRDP

direct binding to immobilized TSP-1 (TSP-1) | extent of receptor binding, % of buffer control (receptor-TSP-1 complex [2]) [%] | binding to the receptor (receptor) | peptide competition of TSP-1 receptor binding [3] | Substance | inhibition of receptor binding to immobilized TSP-1 (receptor-TSP-1 complex [1]) | cell adhesion to immobilized peptide (B16-F10 Melanoma Cells) | reversal of the angiocidin inhibition of viability [4] | cell growth, factor alone ([5]; FGF 2 ng/ml, TSP-1 20 μg/ml) | reversal of the angiocidin inhibition of viability ([5]; angiocidin 37 μg/ml plus FGF 2 ng/ml or TSP-1 20 μg/ml)
bind directly to the immobilized TSP-1 |  |  |  | VCHSKTR | inhibits binding of the receptor with the immobilized TSP-1 | cause the cells to adhere to the plates, with similar affinity to the positive controls fibronectin and TSP-1 |  |  | 
 | 47 | bind to the receptor | inhibited binding | Cys(Acm)-Ser-Val-Thr-Cys(Acm)-Gly (C(Acm)SVTC(Acm)G) |  |  |  |  | 
 |  | bind to the receptor |  | TSP-1: Thrombospondin, a cell adhesive protein and matrix molecule |  |  | can ameliorate some of the inhibition of angiocidin | stimulated cell growth above control | neither the addition of FGF or TSP-1 reversed the inhibition of angiocidin
